The text below walks through data of patent US20190062386A1 (UNIVERSITY OF NORTH CAROLINA AT CHAPEL HILL, published 2019).

In the test the target is T1, Myc tagged TRPC3 (UniProt Q13507-3 1-848, limits assumed).
T1 construct: Expressed in HEK293T cells and tested in cell lysates; also called Myc-TRPC3
T1 sequence (looked up): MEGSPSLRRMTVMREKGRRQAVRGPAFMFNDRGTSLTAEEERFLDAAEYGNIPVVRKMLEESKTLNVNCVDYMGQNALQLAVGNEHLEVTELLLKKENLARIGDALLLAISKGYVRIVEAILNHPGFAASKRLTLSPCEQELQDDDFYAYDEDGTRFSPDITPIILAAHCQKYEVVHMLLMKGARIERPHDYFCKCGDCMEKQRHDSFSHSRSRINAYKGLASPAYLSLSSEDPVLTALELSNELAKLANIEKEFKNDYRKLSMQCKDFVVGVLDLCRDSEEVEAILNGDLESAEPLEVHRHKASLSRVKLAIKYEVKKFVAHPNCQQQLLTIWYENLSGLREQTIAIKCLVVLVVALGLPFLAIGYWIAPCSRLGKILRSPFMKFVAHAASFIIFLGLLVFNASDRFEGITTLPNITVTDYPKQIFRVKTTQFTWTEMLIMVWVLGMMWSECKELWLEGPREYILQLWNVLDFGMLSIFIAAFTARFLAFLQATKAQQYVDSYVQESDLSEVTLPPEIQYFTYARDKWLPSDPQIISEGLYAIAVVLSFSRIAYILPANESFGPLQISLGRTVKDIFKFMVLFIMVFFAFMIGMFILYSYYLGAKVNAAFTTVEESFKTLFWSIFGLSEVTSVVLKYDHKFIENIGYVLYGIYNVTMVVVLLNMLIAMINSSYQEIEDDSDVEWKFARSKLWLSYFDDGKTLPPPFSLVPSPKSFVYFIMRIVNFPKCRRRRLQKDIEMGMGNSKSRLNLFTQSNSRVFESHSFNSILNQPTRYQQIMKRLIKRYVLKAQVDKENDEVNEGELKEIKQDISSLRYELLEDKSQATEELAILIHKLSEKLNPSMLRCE
Put plainly: co-immunoprecipitation from lysates of HEK293T cells cotransfected with V5-SPLUNC1 and Myc-TRPC3. As for the experimental part: Immunoprecipitation analysis was performed using cell lysates from HEK293T cells cotransfected with V5-SPLUNC1 and Myc-TRPC3. Data represents an n=3 blots.
Antibodies, immunoprecipitation, and immunoblot analysis: Rabbit anti-Orai1, anti-HA epitope (Santa Cruz), anti-GFP, anti-phospho-myosin light chain, anti-total myosin light chain, anti-GAPDH (glyceraldehyde-3-phosphate dehydrogenase) (Cell Signaling Technology); mouse anti-V5 epitope (Life Technologies), were purchased from commercial sources. To detect protein expression in total cell lysates, cells were lysed in Pierce® IP lysis buffer with 25 mM Tris-HCl pH 7.4, 150 mM NaCl, 1% NP-40, 1 mM EDTA, 5% glycerol, followed by SDS-polyacrylamide electrophoresis and immunoblot.

B1: V5-SPLUNC1 (other, not shown: small tags and cut ends)
chain: QFGGLPVPLDQTLPLNVNPALPLSPTGLAGSLTNALSNGLLSGGLLGILENLPLLDILKPGGGTSGGLLGGLLGKVTSVIPGLNNIIDIKVTDPQLLELGLVQSPDGHRLYVTIPLGIKLQVNTPLVGASLLRLAVKLDITAEILAVRDKQERIHLVLGDCTHSPGSLQISLLDGLGPLPIQGLLDSLTGILNKVLPELVQGNVCPLVNEVLRGLDITLVHDIVNMLIHGLQFVIKV
notes: Expressed in HEK293T cells and tested in cell lysates; The tag is placed first only because the name is printed that way; also called pcDNA3.1(+)-V5-SPLUNC1
On to B1, for which the binding result is “no binding”.
